Results as given in paper PMC10621992 (PLOS Pathogens, 2023).

B1: IRF3-Flag, purified from HEK293 cells (natural protein, human, UniProt Q14653 1-427, looked up)
chain: MGTPKPRILPWLVSQLDLGQLEGVAWVNKSRTRFRIPWKHGLRQDAQQEDFGIFQAWAEATGAYVPGRDKPDLPTWKRNFRSALNRKEGLRLAEDRSKDPHDPHKIYEFVNSGVGDFSQPDTSPDTNGGGSTSDTQEDILDELLGNMVLAPLPDPGPPSLAVAPEPCPQPLRSPSLDNPTPFPNLGPSENPLKRLLVPGEEWEFEVTAFYRGRQVFQQTISCPEGLRLVGSEVGDRTLPGWPVTLPDPGMSLTDRGVMSYVRHVLSCLGGGLALWRAGQWLWAQRLGHCHTYWAVSEELLPNSGHGPDGEVPKDKEGGVFDLGPFIVDLITFTEGSGRSPRYALWFCVGESWPQDQPWTKRLVMVKVVPTCLRALVEMARVGGASSLENTVDLHISNSHPLSLTSDQYKAYLQDLVEGMDFQGPGES
B2: His-IRF3, prokaryotically expressed and purified (natural protein, human, UniProt Q14653 1-427, looked up)
chain: MGTPKPRILPWLVSQLDLGQLEGVAWVNKSRTRFRIPWKHGLRQDAQQEDFGIFQAWAEATGAYVPGRDKPDLPTWKRNFRSALNRKEGLRLAEDRSKDPHDPHKIYEFVNSGVGDFSQPDTSPDTNGGGSTSDTQEDILDELLGNMVLAPLPDPGPPSLAVAPEPCPQPLRSPSLDNPTPFPNLGPSENPLKRLLVPGEEWEFEVTAFYRGRQVFQQTISCPEGLRLVGSEVGDRTLPGWPVTLPDPGMSLTDRGVMSYVRHVLSCLGGGLALWRAGQWLWAQRLGHCHTYWAVSEELLPNSGHGPDGEVPKDKEGGVFDLGPFIVDLITFTEGSGRSPRYALWFCVGESWPQDQPWTKRLVMVKVVPTCLRALVEMARVGGASSLENTVDLHISNSHPLSLTSDQYKAYLQDLVEGMDFQGPGES
notes: not shown: His, N-terminal, kept

Target: T1, GST-BLK, prokaryotically expressed and purified (human, UniProt P51451 1-505)
T1 construct: also called purified recombinant BLK; not shown: GST, N-terminal, kept
T1 sequence (P51451 whole entry): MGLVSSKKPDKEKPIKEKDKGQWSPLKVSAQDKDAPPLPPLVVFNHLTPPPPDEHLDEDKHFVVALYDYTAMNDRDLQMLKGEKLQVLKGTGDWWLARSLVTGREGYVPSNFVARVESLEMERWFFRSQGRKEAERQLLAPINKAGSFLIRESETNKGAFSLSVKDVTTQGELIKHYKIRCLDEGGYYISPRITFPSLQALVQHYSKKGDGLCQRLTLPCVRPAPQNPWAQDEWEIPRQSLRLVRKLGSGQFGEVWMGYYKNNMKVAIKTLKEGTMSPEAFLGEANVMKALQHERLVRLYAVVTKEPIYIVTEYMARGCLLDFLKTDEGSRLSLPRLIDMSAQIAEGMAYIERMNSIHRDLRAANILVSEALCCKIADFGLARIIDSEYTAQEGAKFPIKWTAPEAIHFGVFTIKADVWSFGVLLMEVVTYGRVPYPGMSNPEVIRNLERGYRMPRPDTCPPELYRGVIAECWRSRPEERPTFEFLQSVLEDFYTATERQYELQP
Test: pull-down
Settings: both partners purified

Binder	binding result
B1	binds
B2	binds
